Test results: patent US20240358731A1, “SUMO PATHWAY AS AN OXYGEN SENSOR RELEVANT TO THE PATHOPHYSIOLOGY OF PULMONARY ARTERY HYPERTENSION AND CARDIAC ARRHYTHMIA” (Northeastern University, priority 2023, published 2024)

Biological target: T1, Kir2.1-mediated IK1 current (Rattus norvegicus, UniProt Q64273)
T1 construct: endogenous in cells; host or cells: rat ventricular cardiomyocytes (RVCMs)
T1 sequence (Q64273 1-427): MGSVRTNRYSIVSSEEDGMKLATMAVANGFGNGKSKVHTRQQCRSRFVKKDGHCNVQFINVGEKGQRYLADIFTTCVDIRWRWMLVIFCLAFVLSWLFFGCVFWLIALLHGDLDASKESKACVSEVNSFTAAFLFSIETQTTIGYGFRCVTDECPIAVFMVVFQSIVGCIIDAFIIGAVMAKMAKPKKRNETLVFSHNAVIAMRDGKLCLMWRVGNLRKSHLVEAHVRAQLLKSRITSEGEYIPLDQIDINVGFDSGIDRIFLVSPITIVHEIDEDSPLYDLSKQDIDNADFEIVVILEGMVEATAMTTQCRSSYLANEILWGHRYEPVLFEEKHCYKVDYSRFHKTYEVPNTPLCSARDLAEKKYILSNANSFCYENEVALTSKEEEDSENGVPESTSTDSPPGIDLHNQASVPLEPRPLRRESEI
Test: Whole-cell patch-clamp of IK1 in rat ventricular cardiomyocytes under acute hypoxia
Type: cell-based
Settings: for effect on hypoxic inhibition of IK1: ambient O2 to 2% O2, agent in pipette (SENP1 2 μM, SUMO1 1 μM, diC8-PIP2) or pretreatment (TAK981)
Procedure: IK1 in rat ventricular cardiomyocytes studied by whole-cell patch-clamp. Hypoxia was a drop in O2 from ambient levels to 2%, measured at the cell. The time-course of hypoxic-inhibition was studied by recording the magnitude of IK1 every second. Cells were studied with the following pipette solutions: control, SUMO1 (1 μM) or SENP1 (2 μM). IK1 was blocked by the addition of 3 mM Ba^2+. […] Left, representative current sweeps; right, a representative time course showing the kinetics of hypoxic inhibition in cardiomyocytes studied with control pipette solution. The inhibition is precluded by including SENP1 (2 μM, magenta) in the recording pipette. The reverse ramp recording protocol is inset. […] SENP1 augments IK1 and protects the current from hypoxia. Data are from 8-10 RVCMs per group, **** P<0.0001, paired, two-tailed Student's […]. […] Representative data are shown with DAPI labeled nuclei and PLA interactions. Summary data are obtained from multiple experiments each with multiple fields of view containing 20-30 nuclei. The scale bar is 10 μm.
To knockdown Kir2.1 expression, RVCMs were transduced with lentiviral particles carrying cGFP and shRNA targeting KCNJ2-mRNA for the channel. Kir2.1 knockdown cells (Kir2.1kd-CMs) were identified by expression of cGFP. Cells were studied with control pipette solution, or with pipette solutions containing purified SUMO1 (1 μM) or SENP1 (2 μM). Where indicated, the control pipette solution contained diC8 PIP2. Paired patch-clamp data were analyzed by Students t-test; ***, P<0.01. […] Kir2.1kd-CMs are identified by expression of GFP (inset, scale bar=10 μm). […] The arrow indicates the change in current-magnitude between exposure to ambient O2 and 2% O2 in the same cell. Right, Concentration-response curve showing that including diC8-PIP2 in the pipette opposes hypoxic-inhibition of IK1 in control RVCMs and RVCMs expressing the scrambled shRNA. The hypoxic-response is diminished in Kir2.1kd-CMs. Data are mean±s.d. for 7-8 cells per condition. […] Current inhibition is diminished when SENP1 is included in the recording pipette and is not observed when SUMO-insensitive Kir2.1-K49Q channels are studied. Data are mean±s.d. for 6 cells per condition.
Hypoxic-inhibition of Kir2.1 in cardiomyocytes via SUMOylation. We studied the effects of acute hypoxia on IK1 in rat ventricular cardiomyocytes (RVCMs) by whole cell patch-clamp recording. […] Both the hypoxia-sensitive and insensitive components of the current were blocked by Ba^2+ (3 mM), consistent with the known role of Kir2 channels in mediating IK1 (FIG. 1a). To determine if SUMOylation mediates the hypoxic inhibition of IK1 we introduced purified SENP1 (2 μM) to the cytosol via the recording pipette. […] Both the SUMO1 and hypoxia-mediated inhibition of IK1 remained stable throughout the remainder of the experiment (up to 10 mins). […] Next, we visualized and quantified the interactions between native Kir2.1 and SUMO1 in RVCMs using the proximity-ligation association (PLA) assay with antibodies we validated in heterologous cells by Western blot. […] The validated Kir2 antibodies were paired with SUMO1 antibodies that we have tested and utilized before. Under control conditions, interactions were observed between Kir2.1 and SUMO1, but not between Kir2.2 or Kir2.3 and SUMO1. […] Although cardiomyocytes are typically cultured at 21% O2, the O2-level in the myocardium is estimated to be in the range of 5-10% O2, under physiological conditions.
Hypoxic-inhibition of IK1/Kir2.1 is reduced by diC8-PIP2 in a concentration-dependent manner. We have shown that adding the exogenous, soluble PIP2 analog diC8-PIP2 into the patch-pipette opposes hypoxic-inhibition of IK1 (FIG. 4). […] As before, the effects of hypoxia were ameliorated by SENP1 (2 μM) and were not observed in the SUMO and hypoxia insensitive Kir2.1-K49Q channels (FIG. 4D).

## SUMO1: purified SUMO1 (small ubiquitin-related modifier) protein introduced via the recording pipette or co-expressed
SUMO1 1 μM in recording pipette
  decrease in IK1: 48±8%
  effect on hypoxic inhibition of IK1: hypoxia-sensitive component of the current was abolished

## Cc1sc(C(=O)c2cncnc2N[C@@H]2C[C@H](COS(N)(=O)=O)[C@@H](O)C2)cc1[C@@H]1NCCc2ccc(Cl)cc21 [TAK981, Subasumstat]
  effect on hypoxic inhibition of IK1: precludes hypoxic inhibition of Kir2 currents

B1: SENP1: purified deSUMOylating enzyme (SUMO specific protease) introduced via the recording pipette or expressed (protein, UniProt Q9P0U3 1-644, looked up)
Sentrin-specific protease 1: MDDIADRMRMDAGEVTLVNHNSVFKTHLLPQTGFPEDQLSLSDQQILSSRQGHLDRSFTCSTRSAAYNPSYYSDNPSSDSFLGSGDLRTFGQSANGQWRNSTPSSSSSLQKSRNSRSLYLETRKTSSGLSNSFAGKSNHHCHVSAYEKSFPIKPVPSPSWSGSCRRSLLSPKKTQRRHVSTAEETVQEEEREIYRQLLQMVTGKQFTIAKPTTHFPLHLSRCLSSSKNTLKDSLFKNGNSCASQIIGSDTSSSGSASILTNQEQLSHSVYSLSSYTPDVAFGSKDSGTLHHPHHHHSVPHQPDNLAASNTQSEGSDSVILLKVKDSQTPTPSSTFFQAELWIKELTSVYDSRARERLRQIEEQKALALQLQNQRLQEREHSVHDSVELHLRVPLEKEIPVTVVQETQKKGHKLTDSEDEFPEITEEMEKEIKNVFRNGNQDEVLSEAFRLTITRKDIQTLNHLNWLNDEIINFYMNMLMERSKEKGLPSVHAFNTFFFTKLKTAGYQAVKRWTKKVDVFSVDILLVPIHLGVHWCLAVVDFRKKNITYYDSMGGINNEACRILLQYLKQESIDKKRKEFDTNGWQLFSKKSQEIPQQMNGSDCGMFACKYADCITKDRPINFTQQHMPYFRKRMVWEILHRKLL
  effect on hypoxic inhibition of IK1: insensitive to hypoxia
Purified SENP1 2 μM via recording pipette, mean±S.D.
  increase in IK1: 17.6±6.5%
